Measured values taken from article PMC5856089.

Legend:
[1] = target: T1, C-luc Apaf-1 (full length Apaf-1 fused through its N-terminus to the C-terminal fragment, amino acids 395-550, of P. pyralis luciferase, with C-terminal His-tag), O14727; assay: split reporter (BiFC, NanoBiT); cell-free split luciferase: extracts of N-luc Apaf-1 and C-luc Apaf-1 expressing cells mixed, cytochrome c (1.6 μM) and dATP (1.0 mM) added, room temperature; against the mixture without cytochrome c and dATP; conditions: remark: other sources report otherwise
T1 chain: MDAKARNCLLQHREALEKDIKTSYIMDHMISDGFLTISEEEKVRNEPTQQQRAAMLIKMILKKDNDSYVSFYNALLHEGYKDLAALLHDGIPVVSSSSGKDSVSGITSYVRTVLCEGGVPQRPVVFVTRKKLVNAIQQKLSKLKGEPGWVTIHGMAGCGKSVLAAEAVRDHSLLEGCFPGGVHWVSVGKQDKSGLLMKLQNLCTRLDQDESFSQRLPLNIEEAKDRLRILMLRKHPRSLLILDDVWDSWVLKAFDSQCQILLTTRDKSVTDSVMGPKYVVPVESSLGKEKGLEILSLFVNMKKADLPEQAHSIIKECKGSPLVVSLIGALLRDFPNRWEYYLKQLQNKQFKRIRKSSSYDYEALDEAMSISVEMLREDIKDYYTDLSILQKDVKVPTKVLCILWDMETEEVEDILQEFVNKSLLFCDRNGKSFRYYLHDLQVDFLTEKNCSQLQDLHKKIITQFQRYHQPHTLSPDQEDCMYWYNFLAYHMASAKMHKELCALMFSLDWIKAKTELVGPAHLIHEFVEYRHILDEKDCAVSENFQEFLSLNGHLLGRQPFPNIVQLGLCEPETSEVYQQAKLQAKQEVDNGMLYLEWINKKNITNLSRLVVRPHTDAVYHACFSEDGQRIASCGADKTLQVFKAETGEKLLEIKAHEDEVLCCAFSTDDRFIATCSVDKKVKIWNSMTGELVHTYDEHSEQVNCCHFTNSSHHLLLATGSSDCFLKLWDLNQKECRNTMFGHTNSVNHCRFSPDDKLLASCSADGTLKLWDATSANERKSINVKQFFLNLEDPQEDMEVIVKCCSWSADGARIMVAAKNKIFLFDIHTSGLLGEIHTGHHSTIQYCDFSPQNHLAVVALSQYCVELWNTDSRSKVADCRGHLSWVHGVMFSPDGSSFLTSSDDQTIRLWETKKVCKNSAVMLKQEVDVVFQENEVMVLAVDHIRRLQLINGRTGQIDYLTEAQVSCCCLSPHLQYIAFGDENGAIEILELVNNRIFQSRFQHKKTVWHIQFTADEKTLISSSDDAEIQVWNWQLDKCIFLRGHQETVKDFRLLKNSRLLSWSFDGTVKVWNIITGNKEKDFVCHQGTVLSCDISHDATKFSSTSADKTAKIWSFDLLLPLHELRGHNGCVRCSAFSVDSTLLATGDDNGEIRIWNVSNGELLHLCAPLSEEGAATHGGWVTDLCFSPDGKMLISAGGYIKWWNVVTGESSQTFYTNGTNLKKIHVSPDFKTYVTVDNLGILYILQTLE

[2] = target: T1, C-luc Apaf-1 (full length Apaf-1 fused …); assay: split reporter (BiFC, NanoBiT); cell-based split luciferase: HEK293 co-transfected with N-luc Apaf-1 and C-luc Apaf-1 (N/P 12), apoptosis induced with 0.5 μM doxorubicin, lysates (CCLR) prepared 12, 24, 28 and 36 h after induction; luciferase activity against uninduced cells; conditions: remark: other sources report otherwise

B1: N-luc Apaf-1 (full length Apaf-1 fused through its N-terminus to the N-terminal fragment, amino acids 1-416, of P. pyralis luciferase), O14727 1-1248 (natural protein)
chain: T1 chain
- fold increase in reconstituted luciferase activity with dATP/cytochrome c against the mixture without them [1]: 5 fold
- fold change in luciferase activity against uninduced cells, 12 h after apoptosis induction [2]: 10 fold
- fold change in luciferase activity against uninduced cells, 24 h after apoptosis induction [2]: 130 fold
- fold change in luciferase activity against uninduced cells, 28 h after apoptosis induction [2]: 280 fold
- fold change in luciferase activity against uninduced cells, 36 h after apoptosis induction [2]: 40 fold
